To fix the notation:
B1: minF1; the commonest letter at each place (parent)
chain: GAGACCGCAACTGAAAAGTTGTTATCAGAAATGGATGGGTTGAATTTCTGCACGTAGAAGCAAAAGGC

These results are taken from the supplement of paper PMC6755084.

The variants in this series derive from B1. The series is described as follows: fraction ligated after 30 min (ligated reads / total reads); higher = more ligase activity. The settings on record: with F1*subA RNA substrate (template-directed ligation), 42 °C. In short, it runs like this:
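Using barcoded primers for reverse transcription and a MiSeq for sequencing, gel-separated ligated and unligated RNAs of minimized ligase ribozyme variants were read, with core-base filtering at quality ≥30. Fraction ligated per variant was defined as ligated reads over total reads.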
On to GAGACCGCAACTGAAAAGTTGTTATCGGAAATGGATGGGTTGACTTTCTGCACGTAGAAGCAAAAGGC [A27G A44C], for which the fraction ligated stood at 0.69.
The figure for GAGACCGCAACTGAAAAGTTGTTATCGGAAATGGATGGGTTGATTTTCTGCACGTAGAAGCAAAAGGC [A27G A44T] is 0.774.
The figure for GAGACCGCAACTGAAAAGTTGTTATCGGAAATGGATGGGTTGAGTTTCTGCACGTAGAAGCAAAAGGC [A27G A44G] is 0.746; for GAGACCGCAACTGAAAAGTTGTTATCTGAAGTGGATGGGTTGAATTTCTGCACGTAGAAGCAAAAGGC [A27T A31G] it is 0.837.
The figure for GAGACCGCAACTGAAAAGTTGTTATCTGAACTGGATGGGTTGAATTTCTGCACGTAGAAGCAAAAGGC [A27T A31C] is 0.844.
Consider GAGACCGCAACTGAAAAGTTGTTATCTGAATTGGATGGGTTGAATTTCTGCACGTAGAAGCAAAAGGC [A27T A31T], for which the fraction ligated was 0.802.
In the case of GAGACCGCAACTGAAAAGTTGTTATCGGAAACGGATGGGTTGAATTTCTGCACGTAGAAGCAAAAGGC [A27G T32C], the fraction ligated was determined as 0.0134.
As to GAGACCGCAACTGAAAAGTTGTTATCGGAAAAGGATGGGTTGAATTTCTGCACGTAGAAGCAAAAGGC [A27G T32A], the fraction ligated is 0.0468.
Under GAGACCGCAACTGAAAAGTTGTTATCGGAAAGGGATGGGTTGAATTTCTGCACGTAGAAGCAAAAGGC [A27G T32G] stands 0.0179.
The figure for GAGACCGCAACTGAAAAGTTGTTATCCGAAATGGATGGGTTTAATTTCTGCACGTAGAAGCAAAAGGC [A27C G42T] is 0.0494.
Under GAGACCGCAACTGAAAAGTTGTTATCCGAAATGGATGGGTTCAATTTCTGCACGTAGAAGCAAAAGGC [A27C G42C] stands 0.0124; under GAGACCGCAACTGAAAAGTTGTTATCCGAAATGGATGGGTTAAATTTCTGCACGTAGAAGCAAAAGGC [A27C G42A], 0.171.
In the case of GAGACCGCAACTGAAAAGTTGTTATCGGAAATGGGTGGGTTGAATTTCTGCACGTAGAAGCAAAAGGC [A27G A35G], the fraction ligated is 0.332.
The figure for GAGACCGCAACTGAAAAGTTGTTATCGGAAATGGTTGGGTTGAATTTCTGCACGTAGAAGCAAAAGGC [A27G A35T] is 0.0618.
The figure for GAGACCGCAACTGAAAAGTTGTTATCGGAAATGGCTGGGTTGAATTTCTGCACGTAGAAGCAAAAGGC [A27G A35C] is 0.0489.
The figure for GAGACCGCAACTGAAAAGTTGTTATCGGCAATGGATGGGTTGAATTTCTGCACGTAGAAGCAAAAGGC [A27G A29C] is 0.809.
Regarding GAGACCGCAACTGAAAAGTTGTTATCGGTAATGGATGGGTTGAATTTCTGCACGTAGAAGCAAAAGGC [A27G A29T], the fraction ligated worked out at 0.808.
The figure for GAGACCGCAACTGAAAAGTTGTTATCGGGAATGGATGGGTTGAATTTCTGCACGTAGAAGCAAAAGGC [A27G A29G] is 0.797.
As for GAGACCGCAACTGAAAAGTTGTTATCGGAAATGGATTGGTTGAATTTCTGCACGTAGAAGCAAAAGGC [A27G G37T], the fraction ligated was 0.0232.
Under GAGACCGCAACTGAAAAGTTGTTATCGGAAATGGATCGGTTGAATTTCTGCACGTAGAAGCAAAAGGC [A27G G37C] stands 0.00672; under GAGACCGCAACTGAAAAGTTGTTATCGGAAATGGATAGGTTGAATTTCTGCACGTAGAAGCAAAAGGC [A27G G37A], 0.00716.
Under GAGACCGCAACTGAAAAGTTGTTATCTTAAATGGATGGGTTGAATTTCTGCACGTAGAAGCAAAAGGC [A27T G28T] stands 0.833.
As for GAGACCGCAACTGAAAAGTTGTTATCTCAAATGGATGGGTTGAATTTCTGCACGTAGAAGCAAAAGGC [A27T G28C], the fraction ligated amounted to 0.765.
For the variant GAGACCGCAACTGAAAAGTTGTTATCTAAAATGGATGGGTTGAATTTCTGCACGTAGAAGCAAAAGGC [A27T G28A], the fraction ligated is 0.825.
Regarding GAGACCGCAACTGAAAAGTTGTTATCGGAAATGCATGGGTTGAATTTCTGCACGTAGAAGCAAAAGGC [A27G G34C], the fraction ligated is 0.00194.
Under GAGACCGCAACTGAAAAGTTGTTATCGGAAATGAATGGGTTGAATTTCTGCACGTAGAAGCAAAAGGC [A27G G34A] stands 0.207; under GAGACCGCAACTGAAAAGTTGTTATCGGAAATGTATGGGTTGAATTTCTGCACGTAGAAGCAAAAGGC [A27G G34T], 0.00742; under GAGACCGCAACTGAAAAGTTGTTATCCGAAATGGACGGGTTGAATTTCTGCACGTAGAAGCAAAAGGC [A27C T36C], 0.0483.
On to GAGACCGCAACTGAAAAGTTGTTATCCGAAATGGAGGGGTTGAATTTCTGCACGTAGAAGCAAAAGGC [A27C T36G], for which the fraction ligated is 0.0955.
Under GAGACCGCAACTGAAAAGTTGTTATCCGAAATGGAAGGGTTGAATTTCTGCACGTAGAAGCAAAAGGC [A27C T36A] stands 0.0988; under GAGACCGCAACTGAAAAGTTGTTATCTGAAATGCATGGGTTGAATTTCTGCACGTAGAAGCAAAAGGC [A27T G34C], 0.00507.
Under GAGACCGCAACTGAAAAGTTGTTATCTGAAATGAATGGGTTGAATTTCTGCACGTAGAAGCAAAAGGC [A27T G34A] stands 0.285; under GAGACCGCAACTGAAAAGTTGTTATCGTAAATGGATGGGTTGAATTTCTGCACGTAGAAGCAAAAGGC [A27G G28T], 0.824.
The figure for GAGACCGCAACTGAAAAGTTGTTATCGCAAATGGATGGGTTGAATTTCTGCACGTAGAAGCAAAAGGC [A27G G28C] is 0.793; for GAGACCGCAACTGAAAAGTTGTTATCGAAAATGGATGGGTTGAATTTCTGCACGTAGAAGCAAAAGGC [A27G G28A] it is 0.797; for GAGACCGCAACTGAAAAGTTGTTATCTGAAATGGATGGGTTGCATTTCTGCACGTAGAAGCAAAAGGC [A27T A43C] it is 0.336.
Turning to GAGACCGCAACTGAAAAGTTGTTATCTGAAATGGATGGGTTGTATTTCTGCACGTAGAAGCAAAAGGC [A27T A43T], the fraction ligated was 0.412.
With GAGACCGCAACTGAAAAGTTGTTATCTGAAATGGATGGGTTGGATTTCTGCACGTAGAAGCAAAAGGC [A27T A43G], the fraction ligated was 0.281.
Under GAGACCGCAACTGAAAAGTTGTTATCCGAAATGGATTGGTTGAATTTCTGCACGTAGAAGCAAAAGGC [A27C G37T] stands 0.0224.
